Test results taken from patent US20200317768A1 (published 2020).

T1: cynomolgus monkey FcγRIIb extracellular domain, His-tagged (cynomolgus monkey)
T1 construct: also called cyno FcγRIIb; cynoFcγRIIb
T1 chain: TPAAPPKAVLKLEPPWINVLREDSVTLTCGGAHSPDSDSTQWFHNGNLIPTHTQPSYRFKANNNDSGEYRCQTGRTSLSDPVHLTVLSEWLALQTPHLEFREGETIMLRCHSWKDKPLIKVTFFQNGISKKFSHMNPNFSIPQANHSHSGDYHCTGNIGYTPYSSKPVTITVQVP

B1: MS_M103205H795-SG1/M103202L889-SK1 (antibody, human IgG1, kappa)
heavy: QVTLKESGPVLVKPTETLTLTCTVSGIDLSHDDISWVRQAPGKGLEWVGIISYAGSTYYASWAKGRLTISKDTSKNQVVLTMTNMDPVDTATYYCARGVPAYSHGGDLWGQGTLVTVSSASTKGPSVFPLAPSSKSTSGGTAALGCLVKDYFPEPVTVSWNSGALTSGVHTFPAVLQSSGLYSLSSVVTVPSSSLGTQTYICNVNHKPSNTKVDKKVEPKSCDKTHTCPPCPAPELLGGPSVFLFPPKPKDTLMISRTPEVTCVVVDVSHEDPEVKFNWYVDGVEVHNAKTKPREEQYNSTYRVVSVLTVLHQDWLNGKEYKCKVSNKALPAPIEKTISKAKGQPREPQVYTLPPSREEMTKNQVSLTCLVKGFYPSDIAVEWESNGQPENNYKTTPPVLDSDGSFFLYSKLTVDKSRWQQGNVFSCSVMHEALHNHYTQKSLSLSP
light: DIVMTQSPATLSLSPGERATLSCTSSQSVYHANWLSWFQQKPGQPPKLLIYWASTLAYGVPSRFSGSGSGTDFTLTISSLQPEDAATYYCAGGYGGGRYAFGQGTKVEIKRTVAAPSVFIFPPSDEQLKSGTASVVCLLNNFYPREAKVQWKVDNALQSGNSQESVTEQDSKDSTYSLSSTLTLSKADYEKHKVYACEVTHQGLSSPVTKSFNRGEC
notes: Parent antibody of the Fc variants; heavy chain constant region SG1, light chain M103202L889-SK1; also called MS1032LO06-SG1
B2: M103205H795-MY006/M103202L889-SK1 (antibody, human IgG1, kappa)
heavy: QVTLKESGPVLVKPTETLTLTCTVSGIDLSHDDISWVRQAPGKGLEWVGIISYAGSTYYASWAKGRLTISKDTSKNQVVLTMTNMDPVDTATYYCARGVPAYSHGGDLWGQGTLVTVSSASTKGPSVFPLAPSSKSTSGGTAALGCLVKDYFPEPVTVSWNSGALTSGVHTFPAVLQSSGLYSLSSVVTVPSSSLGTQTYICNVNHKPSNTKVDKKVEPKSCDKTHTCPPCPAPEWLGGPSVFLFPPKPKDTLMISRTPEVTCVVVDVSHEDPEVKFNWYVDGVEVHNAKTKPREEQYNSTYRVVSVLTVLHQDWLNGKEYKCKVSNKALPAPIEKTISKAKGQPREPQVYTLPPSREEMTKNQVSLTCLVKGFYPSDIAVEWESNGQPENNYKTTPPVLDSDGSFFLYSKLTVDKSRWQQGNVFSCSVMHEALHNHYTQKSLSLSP
light: DIVMTQSPATLSLSPGERATLSCTSSQSVYHANWLSWFQQKPGQPPKLLIYWASTLAYGVPSRFSGSGSGTDFTLTISSLQPEDAATYYCAGGYGGGRYAFGQGTKVEIKRTVAAPSVFIFPPSDEQLKSGTASVVCLLNNFYPREAKVQWKVDNALQSGNSQESVTEQDSKDSTYSLSSTLTLSKADYEKHKVYACEVTHQGLSSPVTKSFNRGEC
notes: Substitution put into M103205H795-SG1
B3: M103205H795-MY065/M103202L889-SK1 (antibody, human IgG1, kappa)
heavy: not shown
light: DIVMTQSPATLSLSPGERATLSCTSSQSVYHANWLSWFQQKPGQPPKLLIYWASTLAYGVPSRFSGSGSGTDFTLTISSLQPEDAATYYCAGGYGGGRYAFGQGTKVEIKRTVAAPSVFIFPPSDEQLKSGTASVVCLLNNFYPREAKVQWKVDNALQSGNSQESVTEQDSKDSTYSLSSTLTLSKADYEKHKVYACEVTHQGLSSPVTKSFNRGEC
notes: as for B2
B4: M103205H795-MY045/M103202L889-SK1 (antibody, human IgG1, kappa)
heavy: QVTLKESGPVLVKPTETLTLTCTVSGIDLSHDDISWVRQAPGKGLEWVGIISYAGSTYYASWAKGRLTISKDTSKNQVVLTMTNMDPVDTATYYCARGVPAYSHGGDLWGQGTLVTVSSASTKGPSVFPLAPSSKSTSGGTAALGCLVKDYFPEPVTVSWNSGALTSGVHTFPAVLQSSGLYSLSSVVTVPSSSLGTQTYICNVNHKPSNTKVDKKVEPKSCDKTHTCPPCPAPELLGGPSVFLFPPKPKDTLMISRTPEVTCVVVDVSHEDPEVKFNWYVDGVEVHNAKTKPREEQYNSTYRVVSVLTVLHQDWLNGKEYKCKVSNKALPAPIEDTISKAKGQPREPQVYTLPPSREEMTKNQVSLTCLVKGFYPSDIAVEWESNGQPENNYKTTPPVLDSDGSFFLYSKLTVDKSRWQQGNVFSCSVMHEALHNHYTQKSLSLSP
light: DIVMTQSPATLSLSPGERATLSCTSSQSVYHANWLSWFQQKPGQPPKLLIYWASTLAYGVPSRFSGSGSGTDFTLTISSLQPEDAATYYCAGGYGGGRYAFGQGTKVEIKRTVAAPSVFIFPPSDEQLKSGTASVVCLLNNFYPREAKVQWKVDNALQSGNSQESVTEQDSKDSTYSLSSTLTLSKADYEKHKVYACEVTHQGLSSPVTKSFNRGEC
notes: as for B2
B5: M103205H795-MY044/M103202L889-SK1 (antibody, human IgG1, kappa)
heavy: not shown
light: DIVMTQSPATLSLSPGERATLSCTSSQSVYHANWLSWFQQKPGQPPKLLIYWASTLAYGVPSRFSGSGSGTDFTLTISSLQPEDAATYYCAGGYGGGRYAFGQGTKVEIKRTVAAPSVFIFPPSDEQLKSGTASVVCLLNNFYPREAKVQWKVDNALQSGNSQESVTEQDSKDSTYSLSSTLTLSKADYEKHKVYACEVTHQGLSSPVTKSFNRGEC
notes: as for B2
B6: M103205H795-MY068/M103202L889-SK1 (antibody, human IgG1, kappa)
heavy: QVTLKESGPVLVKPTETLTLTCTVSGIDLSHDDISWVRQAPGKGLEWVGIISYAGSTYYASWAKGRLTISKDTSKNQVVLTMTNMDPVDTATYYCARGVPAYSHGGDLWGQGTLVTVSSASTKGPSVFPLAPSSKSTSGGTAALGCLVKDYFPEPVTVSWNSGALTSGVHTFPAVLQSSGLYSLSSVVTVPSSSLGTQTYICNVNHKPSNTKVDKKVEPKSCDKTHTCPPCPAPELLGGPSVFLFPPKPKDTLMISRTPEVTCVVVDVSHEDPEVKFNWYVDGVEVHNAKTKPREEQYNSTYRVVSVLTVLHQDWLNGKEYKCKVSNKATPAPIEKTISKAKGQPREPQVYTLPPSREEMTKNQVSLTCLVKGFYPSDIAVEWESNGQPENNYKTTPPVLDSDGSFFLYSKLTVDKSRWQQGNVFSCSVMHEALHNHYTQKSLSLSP
light: DIVMTQSPATLSLSPGERATLSCTSSQSVYHANWLSWFQQKPGQPPKLLIYWASTLAYGVPSRFSGSGSGTDFTLTISSLQPEDAATYYCAGGYGGGRYAFGQGTKVEIKRTVAAPSVFIFPPSDEQLKSGTASVVCLLNNFYPREAKVQWKVDNALQSGNSQESVTEQDSKDSTYSLSSTLTLSKADYEKHKVYACEVTHQGLSSPVTKSFNRGEC
notes: as for B2
B7: M103205H795-MY037/M103202L889-SK1 (antibody, human IgG1, kappa)
heavy: not shown
light: DIVMTQSPATLSLSPGERATLSCTSSQSVYHANWLSWFQQKPGQPPKLLIYWASTLAYGVPSRFSGSGSGTDFTLTISSLQPEDAATYYCAGGYGGGRYAFGQGTKVEIKRTVAAPSVFIFPPSDEQLKSGTASVVCLLNNFYPREAKVQWKVDNALQSGNSQESVTEQDSKDSTYSLSSTLTLSKADYEKHKVYACEVTHQGLSSPVTKSFNRGEC
notes: as for B2
B8: M103205H795-MY070/M103202L889-SK1 (antibody, human IgG1, kappa)
heavy: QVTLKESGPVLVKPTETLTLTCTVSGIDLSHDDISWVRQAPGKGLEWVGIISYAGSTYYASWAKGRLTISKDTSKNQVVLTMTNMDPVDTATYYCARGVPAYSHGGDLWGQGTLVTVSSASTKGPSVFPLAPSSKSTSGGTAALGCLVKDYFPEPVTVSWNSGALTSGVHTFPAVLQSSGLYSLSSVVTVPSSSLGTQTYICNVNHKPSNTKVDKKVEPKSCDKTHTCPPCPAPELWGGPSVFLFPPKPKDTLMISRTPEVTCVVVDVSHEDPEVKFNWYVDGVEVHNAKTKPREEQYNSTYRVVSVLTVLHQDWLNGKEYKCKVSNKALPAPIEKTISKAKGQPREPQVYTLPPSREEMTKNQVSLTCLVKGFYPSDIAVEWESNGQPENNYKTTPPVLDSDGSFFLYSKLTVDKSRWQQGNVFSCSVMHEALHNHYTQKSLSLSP
light: DIVMTQSPATLSLSPGERATLSCTSSQSVYHANWLSWFQQKPGQPPKLLIYWASTLAYGVPSRFSGSGSGTDFTLTISSLQPEDAATYYCAGGYGGGRYAFGQGTKVEIKRTVAAPSVFIFPPSDEQLKSGTASVVCLLNNFYPREAKVQWKVDNALQSGNSQESVTEQDSKDSTYSLSSTLTLSKADYEKHKVYACEVTHQGLSSPVTKSFNRGEC
notes: as for B2
B9: M103205H795-MY038/M103202L889-SK1 (antibody, human IgG1, kappa)
heavy: not shown
light: DIVMTQSPATLSLSPGERATLSCTSSQSVYHANWLSWFQQKPGQPPKLLIYWASTLAYGVPSRFSGSGSGTDFTLTISSLQPEDAATYYCAGGYGGGRYAFGQGTKVEIKRTVAAPSVFIFPPSDEQLKSGTASVVCLLNNFYPREAKVQWKVDNALQSGNSQESVTEQDSKDSTYSLSSTLTLSKADYEKHKVYACEVTHQGLSSPVTKSFNRGEC
notes: as for B2
B10: M103205H795-MY072/M103202L889-SK1 (antibody, human IgG1, kappa)
heavy: not shown
light: DIVMTQSPATLSLSPGERATLSCTSSQSVYHANWLSWFQQKPGQPPKLLIYWASTLAYGVPSRFSGSGSGTDFTLTISSLQPEDAATYYCAGGYGGGRYAFGQGTKVEIKRTVAAPSVFIFPPSDEQLKSGTASVVCLLNNFYPREAKVQWKVDNALQSGNSQESVTEQDSKDSTYSLSSTLTLSKADYEKHKVYACEVTHQGLSSPVTKSFNRGEC
notes: as for B2
B11: M103205H795-MY064/M103202L889-SK1 (antibody, human IgG1, kappa)
heavy: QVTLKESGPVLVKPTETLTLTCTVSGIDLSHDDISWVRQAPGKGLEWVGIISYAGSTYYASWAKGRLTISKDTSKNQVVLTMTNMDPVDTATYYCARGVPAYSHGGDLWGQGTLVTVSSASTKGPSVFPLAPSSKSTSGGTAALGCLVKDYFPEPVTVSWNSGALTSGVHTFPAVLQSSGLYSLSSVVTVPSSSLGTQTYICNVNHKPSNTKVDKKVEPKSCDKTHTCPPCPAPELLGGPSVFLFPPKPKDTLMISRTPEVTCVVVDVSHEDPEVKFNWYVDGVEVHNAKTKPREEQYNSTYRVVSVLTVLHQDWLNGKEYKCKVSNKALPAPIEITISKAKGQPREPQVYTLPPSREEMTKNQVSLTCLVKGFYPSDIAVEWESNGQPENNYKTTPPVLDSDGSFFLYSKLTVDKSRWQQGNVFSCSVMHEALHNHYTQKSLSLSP
light: DIVMTQSPATLSLSPGERATLSCTSSQSVYHANWLSWFQQKPGQPPKLLIYWASTLAYGVPSRFSGSGSGTDFTLTISSLQPEDAATYYCAGGYGGGRYAFGQGTKVEIKRTVAAPSVFIFPPSDEQLKSGTASVVCLLNNFYPREAKVQWKVDNALQSGNSQESVTEQDSKDSTYSLSSTLTLSKADYEKHKVYACEVTHQGLSSPVTKSFNRGEC
notes: as for B2
B12: M103205H795-MY069/M103202L889-SK1 (antibody, human IgG1, kappa)
heavy: not shown
light: DIVMTQSPATLSLSPGERATLSCTSSQSVYHANWLSWFQQKPGQPPKLLIYWASTLAYGVPSRFSGSGSGTDFTLTISSLQPEDAATYYCAGGYGGGRYAFGQGTKVEIKRTVAAPSVFIFPPSDEQLKSGTASVVCLLNNFYPREAKVQWKVDNALQSGNSQESVTEQDSKDSTYSLSSTLTLSKADYEKHKVYACEVTHQGLSSPVTKSFNRGEC
notes: as for B2
B13: M103205H795-MY014/M103202L889-SK1 (antibody, human IgG1, kappa)
heavy: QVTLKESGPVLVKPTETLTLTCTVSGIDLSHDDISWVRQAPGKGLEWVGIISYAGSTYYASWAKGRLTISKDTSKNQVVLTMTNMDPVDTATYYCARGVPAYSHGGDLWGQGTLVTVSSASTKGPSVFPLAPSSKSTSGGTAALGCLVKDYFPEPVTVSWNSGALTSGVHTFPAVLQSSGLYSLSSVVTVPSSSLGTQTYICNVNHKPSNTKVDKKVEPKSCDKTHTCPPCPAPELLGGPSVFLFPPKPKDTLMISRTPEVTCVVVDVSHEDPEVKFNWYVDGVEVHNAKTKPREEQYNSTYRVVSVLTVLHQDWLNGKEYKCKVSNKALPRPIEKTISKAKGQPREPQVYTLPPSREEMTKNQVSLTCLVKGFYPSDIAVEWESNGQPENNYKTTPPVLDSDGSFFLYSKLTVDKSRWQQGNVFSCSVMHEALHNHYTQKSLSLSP
light: DIVMTQSPATLSLSPGERATLSCTSSQSVYHANWLSWFQQKPGQPPKLLIYWASTLAYGVPSRFSGSGSGTDFTLTISSLQPEDAATYYCAGGYGGGRYAFGQGTKVEIKRTVAAPSVFIFPPSDEQLKSGTASVVCLLNNFYPREAKVQWKVDNALQSGNSQESVTEQDSKDSTYSLSSTLTLSKADYEKHKVYACEVTHQGLSSPVTKSFNRGEC
notes: as for B2
B14: M103205H795-MY013/M103202L889-SK1 (antibody, human IgG1, kappa)
heavy: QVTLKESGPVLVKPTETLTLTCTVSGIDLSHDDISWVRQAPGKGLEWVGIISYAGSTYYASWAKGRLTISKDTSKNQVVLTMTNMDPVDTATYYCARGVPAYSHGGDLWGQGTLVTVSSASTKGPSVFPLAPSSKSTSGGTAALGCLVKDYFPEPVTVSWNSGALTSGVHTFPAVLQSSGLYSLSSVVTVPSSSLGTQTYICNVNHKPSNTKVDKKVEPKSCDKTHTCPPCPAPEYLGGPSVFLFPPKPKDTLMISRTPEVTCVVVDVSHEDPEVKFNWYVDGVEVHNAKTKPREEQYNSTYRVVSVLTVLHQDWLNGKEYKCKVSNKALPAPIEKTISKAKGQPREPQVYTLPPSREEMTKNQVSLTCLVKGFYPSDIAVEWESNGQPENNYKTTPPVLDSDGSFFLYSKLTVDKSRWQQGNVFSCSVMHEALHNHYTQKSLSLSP
light: DIVMTQSPATLSLSPGERATLSCTSSQSVYHANWLSWFQQKPGQPPKLLIYWASTLAYGVPSRFSGSGSGTDFTLTISSLQPEDAATYYCAGGYGGGRYAFGQGTKVEIKRTVAAPSVFIFPPSDEQLKSGTASVVCLLNNFYPREAKVQWKVDNALQSGNSQESVTEQDSKDSTYSLSSTLTLSKADYEKHKVYACEVTHQGLSSPVTKSFNRGEC
notes: as for B2
B15: M103205H795-MY063/M103202L889-SK1 (antibody, human IgG1, kappa)
heavy: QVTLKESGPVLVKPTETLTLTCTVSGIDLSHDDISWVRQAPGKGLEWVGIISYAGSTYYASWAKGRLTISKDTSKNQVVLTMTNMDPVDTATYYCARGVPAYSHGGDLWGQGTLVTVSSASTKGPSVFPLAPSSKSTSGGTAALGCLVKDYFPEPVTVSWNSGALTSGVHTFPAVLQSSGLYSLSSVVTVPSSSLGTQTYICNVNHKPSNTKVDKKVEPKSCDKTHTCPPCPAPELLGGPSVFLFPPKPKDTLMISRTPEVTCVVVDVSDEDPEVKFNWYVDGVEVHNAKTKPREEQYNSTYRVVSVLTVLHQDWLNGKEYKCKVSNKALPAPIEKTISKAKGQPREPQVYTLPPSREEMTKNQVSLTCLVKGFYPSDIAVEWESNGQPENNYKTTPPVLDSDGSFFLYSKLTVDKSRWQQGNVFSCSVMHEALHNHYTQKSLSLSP
light: DIVMTQSPATLSLSPGERATLSCTSSQSVYHANWLSWFQQKPGQPPKLLIYWASTLAYGVPSRFSGSGSGTDFTLTISSLQPEDAATYYCAGGYGGGRYAFGQGTKVEIKRTVAAPSVFIFPPSDEQLKSGTASVVCLLNNFYPREAKVQWKVDNALQSGNSQESVTEQDSKDSTYSLSSTLTLSKADYEKHKVYACEVTHQGLSSPVTKSFNRGEC
notes: as for B2
B16: M103205H795-MY048/M103202L889-SK1 (P271D) (antibody, human IgG1, kappa)
heavy: not shown
light: DIVMTQSPATLSLSPGERATLSCTSSQSVYHANWLSWFQQKPGQPPKLLIYWASTLAYGVPSRFSGSGSGTDFTLTISSLQPEDAATYYCAGGYGGGRYAFGQGTKVEIKRTVAAPSVFIFPPSDEQLKSGTASVVCLLNNFYPREAKVQWKVDNALQSGNSQESVTEQDSKDSTYSLSSTLTLSKADYEKHKVYACEVTHQGLSSPVTKSFNRGEC
notes: Here the P271D molecule is meant; Put into M103205H795-SG1
B17: M103205H795-MY041/M103202L889-SK1 (antibody, human IgG1, kappa)
heavy: not shown
light: DIVMTQSPATLSLSPGERATLSCTSSQSVYHANWLSWFQQKPGQPPKLLIYWASTLAYGVPSRFSGSGSGTDFTLTISSLQPEDAATYYCAGGYGGGRYAFGQGTKVEIKRTVAAPSVFIFPPSDEQLKSGTASVVCLLNNFYPREAKVQWKVDNALQSGNSQESVTEQDSKDSTYSLSSTLTLSKADYEKHKVYACEVTHQGLSSPVTKSFNRGEC
notes: as for B2
B18: M103205H795-MY043/M103202L889-SK1 (antibody, human IgG1, kappa)
heavy: not shown
light: DIVMTQSPATLSLSPGERATLSCTSSQSVYHANWLSWFQQKPGQPPKLLIYWASTLAYGVPSRFSGSGSGTDFTLTISSLQPEDAATYYCAGGYGGGRYAFGQGTKVEIKRTVAAPSVFIFPPSDEQLKSGTASVVCLLNNFYPREAKVQWKVDNALQSGNSQESVTEQDSKDSTYSLSSTLTLSKADYEKHKVYACEVTHQGLSSPVTKSFNRGEC
notes: as for B2
B19: M103205H795-MY010/M103202L889-SK1 (antibody, human IgG1, kappa)
heavy: not shown
light: DIVMTQSPATLSLSPGERATLSCTSSQSVYHANWLSWFQQKPGQPPKLLIYWASTLAYGVPSRFSGSGSGTDFTLTISSLQPEDAATYYCAGGYGGGRYAFGQGTKVEIKRTVAAPSVFIFPPSDEQLKSGTASVVCLLNNFYPREAKVQWKVDNALQSGNSQESVTEQDSKDSTYSLSSTLTLSKADYEKHKVYACEVTHQGLSSPVTKSFNRGEC
notes: as for B2
B20: M103205H795-MY071/M103202L889-SK1 (antibody, human IgG1, kappa)
heavy: not shown
light: DIVMTQSPATLSLSPGERATLSCTSSQSVYHANWLSWFQQKPGQPPKLLIYWASTLAYGVPSRFSGSGSGTDFTLTISSLQPEDAATYYCAGGYGGGRYAFGQGTKVEIKRTVAAPSVFIFPPSDEQLKSGTASVVCLLNNFYPREAKVQWKVDNALQSGNSQESVTEQDSKDSTYSLSSTLTLSKADYEKHKVYACEVTHQGLSSPVTKSFNRGEC
notes: as for B2
B21: M103205H795-MY016/M103202L889-SK1 (antibody, human IgG1, kappa)
heavy: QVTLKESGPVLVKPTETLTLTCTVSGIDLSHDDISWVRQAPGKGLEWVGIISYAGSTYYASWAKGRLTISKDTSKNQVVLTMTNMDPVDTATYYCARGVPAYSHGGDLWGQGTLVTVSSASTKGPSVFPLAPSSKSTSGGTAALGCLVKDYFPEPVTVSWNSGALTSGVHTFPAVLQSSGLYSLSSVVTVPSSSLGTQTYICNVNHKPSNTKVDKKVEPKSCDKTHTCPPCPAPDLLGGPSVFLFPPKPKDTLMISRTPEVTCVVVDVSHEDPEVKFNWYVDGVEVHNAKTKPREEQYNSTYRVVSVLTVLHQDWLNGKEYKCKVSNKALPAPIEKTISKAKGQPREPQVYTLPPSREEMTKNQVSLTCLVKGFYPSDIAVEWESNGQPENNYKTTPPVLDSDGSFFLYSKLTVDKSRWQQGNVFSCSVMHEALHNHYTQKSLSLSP
light: DIVMTQSPATLSLSPGERATLSCTSSQSVYHANWLSWFQQKPGQPPKLLIYWASTLAYGVPSRFSGSGSGTDFTLTISSLQPEDAATYYCAGGYGGGRYAFGQGTKVEIKRTVAAPSVFIFPPSDEQLKSGTASVVCLLNNFYPREAKVQWKVDNALQSGNSQESVTEQDSKDSTYSLSSTLTLSKADYEKHKVYACEVTHQGLSSPVTKSFNRGEC
notes: as for B2
B22: M103205H795-MY008/M103202L889-SK1 (antibody, human IgG1, kappa)
heavy: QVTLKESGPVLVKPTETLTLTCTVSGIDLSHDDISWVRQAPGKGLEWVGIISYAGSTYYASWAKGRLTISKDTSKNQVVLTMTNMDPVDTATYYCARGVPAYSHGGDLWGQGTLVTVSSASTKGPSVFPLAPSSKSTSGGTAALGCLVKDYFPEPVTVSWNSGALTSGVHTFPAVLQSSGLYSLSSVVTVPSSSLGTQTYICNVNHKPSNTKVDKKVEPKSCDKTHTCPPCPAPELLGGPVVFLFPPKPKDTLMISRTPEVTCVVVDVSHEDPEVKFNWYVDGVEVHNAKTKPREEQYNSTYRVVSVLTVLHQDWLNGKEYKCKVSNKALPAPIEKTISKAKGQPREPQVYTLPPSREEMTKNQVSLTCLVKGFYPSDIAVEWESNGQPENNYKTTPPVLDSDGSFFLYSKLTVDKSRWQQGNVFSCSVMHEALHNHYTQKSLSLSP
light: DIVMTQSPATLSLSPGERATLSCTSSQSVYHANWLSWFQQKPGQPPKLLIYWASTLAYGVPSRFSGSGSGTDFTLTISSLQPEDAATYYCAGGYGGGRYAFGQGTKVEIKRTVAAPSVFIFPPSDEQLKSGTASVVCLLNNFYPREAKVQWKVDNALQSGNSQESVTEQDSKDSTYSLSSTLTLSKADYEKHKVYACEVTHQGLSSPVTKSFNRGEC
notes: as for B2

Molecular target: T1, cynomolgus monkey FcγRIIb extracellular …
Experiment: SPR, antibody captured, FcgR analyte

Row | Binder | Kd
1 | B1 | 1800 nM
2 | B2 | 920 nM
3 | B3 | 1300 nM
4 | B4 | 2200 nM
5 | B5 | 1600 nM
6 | B6 | 1000 nM
7 | B7 | 2400 nM
8 | B8 | 1200 nM
9 | B9 | 1900 nM
10 | B10 | 480 nM
11 | B11 | 1100 nM
12 | B12 | 730 nM
13 | B13 | 1500 nM
14 | B14 | 2000 nM
15 | B15 | 340 nM
16 | B16 | 3500 nM
17 | B17 | 3500 nM
18 | B18 | 4400 nM
19 | B19 | 2000 nM
20 | B20 | 2500 nM
21 | B21 | 1700 nM
22 | B22 | 1700 nM
